Source: patent publication US20230303690A1 (published 2023)
Positions count from the first letter of the chain named. One block for each binder: values may come before it.

Tests used:
[1] = biological target: T1, LAG3 Protein, Human, Recombinant (His Tag) (Sino Biological Catalog No. 16498-H08H) (human, UniProt P18627 23-450); experiment: ELISA, coated hLAG3-His
T1 construct: Bought protein; also called hLAG3-His; LAG3-His; not shown: His tag
T1 sequence (looked up): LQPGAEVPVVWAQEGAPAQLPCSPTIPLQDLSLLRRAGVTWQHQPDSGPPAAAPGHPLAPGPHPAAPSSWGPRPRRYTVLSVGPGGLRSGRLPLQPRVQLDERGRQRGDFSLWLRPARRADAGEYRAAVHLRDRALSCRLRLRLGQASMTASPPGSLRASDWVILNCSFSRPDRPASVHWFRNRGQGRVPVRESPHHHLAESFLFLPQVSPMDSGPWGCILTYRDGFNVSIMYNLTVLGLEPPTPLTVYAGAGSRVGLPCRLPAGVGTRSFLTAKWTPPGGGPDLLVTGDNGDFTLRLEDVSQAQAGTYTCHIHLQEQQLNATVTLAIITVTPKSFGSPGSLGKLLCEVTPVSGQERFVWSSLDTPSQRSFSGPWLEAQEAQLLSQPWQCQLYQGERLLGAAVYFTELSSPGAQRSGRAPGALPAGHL
Protocol: Plates were coated with 100 µL per well of Coating Solution, and then covered, and incubated overnight (12-18 hours) at 2-8° C. The wells were aspirated and washed 1 time with >200 µL of Wash buffer per well, inverted and tapped on absorbent paper to remove excess liquid. The plates were blocked with 200 µL per well with Blocking buffer (1×PBS+4% milk) for 1 hour at room temperature, aspirated, inverted, and tapped on absorbent paper to remove excess liquid. Standards and sample dilutions were prepared in Blocking buffer. 100 µL of standards (in duplicate) and samples were pipetted into designated wells. After incubation for 1 hour at room temperature with gentle continual shaking (~500 rpm), the wells were aspirate and washed 3 times with >200 µL of Wash buffer per well, inverted and tapped on absorbent paper to remove excess liquid.
The primary antibody solution was diluted with Blocking buffer. See Table 14 for recommended primary antibody dilution. 100 µL of the primary antibody solution was added into each well and incubated for 2 hours at room temperature with gentle continual shaking (~500 rpm). The wells were aspirated and washed 3 times with >200 µL of Wash buffer per well, inverted and tapped on absorbent paper to remove excess liquid. The working solution of secondary antibody was made with Blocking buffer by diluting the secondary antibody by 2,500 times. 100 µL of secondary antibody working solution was added into each well and incubated for 30 minutes at room temperature. The wells were aspirated and washed 5 times with >200 µL of Wash buffer per well, inverted and tapped on absorbent paper to remove excess liquid. 100 µL of TMB substrate solution (Biopanda, TMB-S-004) was added to each well and incubated for 30 minutes at room temperature. 100 µL of Stop solution (Solarbio, C1058) was added to each well. Absorbance at 450 nm was measured within 30 minutes of adding Stop solution. Results were calculated using a log-log or 4-parameter curve fit.

[2] = biological target: T2, human LAG3 expressed on cells (human, UniProt P18627 23-525); experiment: FACS, 293T-hLAG3 cells
T2 construct: whole, on cells
T2 sequence (looked up): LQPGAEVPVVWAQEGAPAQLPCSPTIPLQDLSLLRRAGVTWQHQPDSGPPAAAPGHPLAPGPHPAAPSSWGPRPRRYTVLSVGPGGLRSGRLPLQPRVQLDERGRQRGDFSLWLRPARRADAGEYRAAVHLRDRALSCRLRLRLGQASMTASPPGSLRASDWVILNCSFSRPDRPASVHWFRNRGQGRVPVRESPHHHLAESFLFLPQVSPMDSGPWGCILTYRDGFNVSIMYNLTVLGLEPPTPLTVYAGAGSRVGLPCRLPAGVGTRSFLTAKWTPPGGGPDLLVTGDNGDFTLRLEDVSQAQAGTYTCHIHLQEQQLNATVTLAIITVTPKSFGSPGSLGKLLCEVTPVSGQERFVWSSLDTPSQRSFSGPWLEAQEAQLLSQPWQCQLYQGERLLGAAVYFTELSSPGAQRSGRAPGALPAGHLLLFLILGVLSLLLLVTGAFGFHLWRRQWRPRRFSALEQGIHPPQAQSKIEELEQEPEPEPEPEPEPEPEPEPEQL
Protocol: 5) The prepared antibody samples were added to the 96-well plate according to the platemap, the cells were resuspended and incubate at 4° C. for 1 hour.
7) 3% BSA/1xPBS was used to dilute Goat polyclonal Secondary Antibody to Human IgG-Fc (DyLight® 650) to the desired concentration (1:200), in which the cells were resuspended and incubated at 4° C. for 1 hour.
9) The cells were resuspended in 200 µl of 3% BSA/1xPBS, and performed flow cytometric testing by Shsti Biotech Inc.

[3] = biological target: T2, human LAG3 expressed on cells; experiment: cell ELISA, 293T-hLAG3 cells
Protocol: Each well was treated with stimulants. The cells were then fixed and blocked with Blocking buffer. The Primary antibodies were added. The wells were washed and a HRP-conjugated secondary antibody was added. The wells were washed with 1x PBS and a solution containing TMB (Biopanda, TMB-S-004) was added. The TMB reacted with HRP to change the color thereof from colorless to blue. An acid stop solution (Solarbio, C1058) was then added to stop the reaction and change the blue color to yellow.
Materials are listed below: [0072] […] 2) Blocking buffer: 1×PBS+3% BSA (Sigma, B2064); [0074] […] [0075] 4) Secondary antibody: Goat anti-human IgG1 Fc antibody, HRP (1:2500, invitrogen, A18817). [0076]

EC50 [1]: 2.08 nM
OD450 at 0.061 nM [1]: 0.038
OD450 at 0.1829 nM [1]: 0.057
OD450 at 0.5487 nM [1]: 0.212
OD450 at 1.6461 nM [1]: 1.15
OD450 at 4.9383 nM [1]: 2.53
OD450 at 14.815 nM [1]: 2.88
OD450 at 44.445 nM [1]: 2.91
OD450 at 133.335 nM [1]: 2.99
EC50 [2]: 1.18 nM
FACS signal at 0.061 nM [2]: 234
FACS signal at 0.1829 nM [2]: 585
FACS signal at 0.5487 nM [2]: 1420
FACS signal at 1.6461 nM [2]: 2810
FACS signal at 4.9383 nM [2]: 3820
FACS signal at 14.815 nM [2]: 4360
FACS signal at 44.445 nM [2]: 4620
FACS signal at 133.335 nM [2]: 4630
B1: sdAb No. 27-H1B3 (VHH)
VHH: QVQLVESGGGLVQPGGSLRLSCAASGFTLDYYAIGWFRQAPGKEREGVSCIRSSDASTYYADSVKGRFTISSDNSKNTVYLQMNSLRAEDTAVYYCATDRYSDCRGPYENWGQGTMVTVSS
notes: Humanized sdAb No. 27-H1; not shown: Fc part implied by anti-human IgG Fc detection

EC50 [3]: 1.01 nM
OD450 at 0.0045725 ug/ml [3]: 0.101
OD450 at 0.0137174 ug/ml [3]: 0.242
OD450 at 0.0411523 ug/ml [3]: 0.527
OD450 at 0.1234568 ug/ml [3]: 0.945
OD450 at 0.3703704 ug/ml [3]: 1.27
OD450 at 1.111111 ug/ml [3]: 1.4
OD450 at 3.333333 ug/ml [3]: 1.44
OD450 at 10 ug/ml [3]: 1.5
B2: sdAb No. 17-H1 (VHH)
VHH: QLQLVESGGGLVQPGGSLRLSCAASGLTLDAYAIGWFRQAPGKEREGLACISGSDGSTHYLDSVKGRFTISRDNGKNTMALQMNSLQFGDTAIYYCAARRGSCSGSWTYWGQGTQVTVSS
notes: Modified sdAb No. 17 (CDR1 DG to DA); not shown: Fc part implied by anti-human IgG1 Fc detection

EC50 [3]: 1.07 nM
OD450 at 0.0045725 ug/ml [3]: 0.105
OD450 at 0.0137174 ug/ml [3]: 0.238
OD450 at 0.0411523 ug/ml [3]: 0.458
OD450 at 0.1234568 ug/ml [3]: 0.9
OD450 at 0.3703704 ug/ml [3]: 1.25
OD450 at 1.111111 ug/ml [3]: 1.35
OD450 at 3.333333 ug/ml [3]: 1.28
OD450 at 10 ug/ml [3]: 1.4
B3: sdAb No. 17-H2 (VHH)
VHH: B2 VHH with D30E, A31G
notes: Modified sdAb No. 17 (CDR1 DG to EG); not shown: Fc part implied by anti-human IgG1 Fc detection

EC50 [3]: 0.758 nM
OD450 at 0.0045725 ug/ml [3]: 0.092
OD450 at 0.0137174 ug/ml [3]: 0.232
OD450 at 0.0411523 ug/ml [3]: 0.432
OD450 at 0.1234568 ug/ml [3]: 0.745
OD450 at 0.3703704 ug/ml [3]: 0.962
OD450 at 1.111111 ug/ml [3]: 0.979
OD450 at 3.333333 ug/ml [3]: 0.905
OD450 at 10 ug/ml [3]: 1.18
B4: sdAb No. 17-H4 (VHH)
VHH: B2 VHH with A31G, D55E
notes: Modified sdAb No. 17 (CDR2 DG to EG); not shown: Fc part implied by anti-human IgG1 Fc detection
